The values that follow come from patent US5747329.

This assay has as its target heavy subunit of rat kidney gamma-glutamylcysteine synthetase (rat).

Regarding “light subunit of rat kidney gamma-glutamylcysteine synthetase (enzyme)”, the Apparent Km for glutamate (mM), co-expressed recombinant holoenzyme was 1.8 mM and the Apparent Km for glutamate (mM), recombinant holoenzyme made by mixing the separately expressed subunits came to 2.8 mM.
